Source: paper doi:10.1101/2023.06.13.544830

Molecular target: T1, OC2 (CUT-HOX) (human, UniProt O95948 330-485)
T1 sequence: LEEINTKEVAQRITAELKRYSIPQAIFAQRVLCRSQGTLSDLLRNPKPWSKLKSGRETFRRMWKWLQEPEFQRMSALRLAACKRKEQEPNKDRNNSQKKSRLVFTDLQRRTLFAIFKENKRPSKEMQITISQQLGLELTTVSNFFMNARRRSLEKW
Test: BLI

B1: PEG10 promoter duplex, biotinylated (dsDNA)
DNA 1: AGATCGATTTGC
DNA 2: GCAAATCGATCT
modifications: 5'-biotin on one strand
B1: binds.
